{"source": "patent US20120301404A1", "key": {"[1]": {"target": "PIF receptor (mouse; C2C12 membranes and mouse tissue plasma membranes) (mouse (C2C12 myotubes))", "assay": "cell-based or functional assay"}, "[2]": {"target": "PIF receptor (pig sarcolemma membranes) (pig)", "assay": "Scatchard analysis of [35S]PIF binding to pig sarcolemma membranes, first site"}, "[3]": {"target": "PIF receptor (pig sarcolemma membranes) (pig)", "assay": "Scatchard analysis of [35S]PIF binding to pig sarcolemma membranes, second site"}, "[4]": {"target": "PIF receptor (mouse; C2C12 membranes and mouse tissue plasma membranes) (mouse (C2C12 myotubes))", "assay": "Scatchard analysis of [35S]PIF binding to mouse heart plasma membranes, first site"}, "[5]": {"target": "PIF receptor (mouse; C2C12 membranes and mouse tissue plasma membranes) (mouse (C2C12 myotubes))", "assay": "Scatchard analysis of [35S]PIF binding to mouse liver plasma membranes, first site"}, "[6]": {"target": "PIF receptor (mouse; C2C12 membranes and mouse tissue plasma membranes) (mouse (C2C12 myotubes))", "assay": "Scatchard analysis of [35S]PIF binding to mouse heart plasma membranes, second site"}, "[7]": {"target": "PIF receptor (mouse; C2C12 membranes and mouse tissue plasma membranes) (mouse (C2C12 myotubes))", "assay": "Scatchard analysis of [35S]PIF binding to mouse liver plasma membranes, second site"}, "[8]": {"target": "PIF receptor (human muscle cell line Hs94MU membranes) (human)", "assay": "Scatchard analysis of [35S]PIF binding to Hs94MU human muscle cell membranes, first site"}, "[9]": {"target": "PIF receptor (human muscle cell line Hs94MU membranes) (human)", "assay": "Scatchard analysis of [35S]PIF binding to Hs94MU human muscle cell membranes, second site"}, "[10]": {"target": "PIF receptor (mouse; C2C12 membranes and mouse tissue plasma membranes) (mouse (C2C12 myotubes))", "assay": "Scatchard analysis of [35S]PIF binding to mouse soleus muscle plasma membranes, first site"}, "[11]": {"target": "PIF receptor (mouse; C2C12 membranes and mouse tissue plasma membranes) (mouse (C2C12 myotubes))", "assay": "Scatchard analysis of [35S]PIF binding to mouse soleus muscle plasma membranes, second site"}, "[12]": {"target": "PIF receptor (mouse; C2C12 membranes and mouse tissue plasma membranes) (mouse (C2C12 myotubes))", "assay": "Scatchard analysis of [35S]PIF binding to mouse gastrocnemius muscle sarcolemma membranes, first site"}, "[13]": {"target": "PIF receptor (mouse; C2C12 membranes and mouse tissue plasma membranes) (mouse (C2C12 myotubes))", "assay": "Scatchard analysis of [35S]PIF binding to C2C12 membranes, second site (column headed Kaff2 x 10^-9 M)"}, "[14]": {"target": "PIF receptor (mouse; C2C12 membranes and mouse tissue plasma membranes) (mouse (C2C12 myotubes))", "assay": "Scatchard analysis of [35S]PIF binding to mouse gastrocnemius muscle sarcolemma membranes, second site"}, "[15]": {"target": "PIF receptor (mouse; C2C12 membranes and mouse tissue plasma membranes) (mouse (C2C12 myotubes))", "assay": "comparison of the affinity of PIF for muscle cell binding sites with its affinity for the MAC16 monoclonal antibody"}, "[16]": {"target": "PIF receptor (mouse; C2C12 membranes and mouse tissue plasma membranes) (mouse (C2C12 myotubes))", "assay": "Scatchard analysis of [35S]PIF binding to C2C12 membranes, first site (column headed Kaff x 10^-10 M; text calls it Kd)"}, "[17]": {"target": "Proteolysis Inducing Factor (PIF) (mouse (MAC16 cells))", "assay": "cell-based or functional assay"}}, "data": [{"molecule": "Proteolysis Inducing Factor (PIF) (ligand)", "values": [{"measurement": "increased rate of protein degradation in C2C12 myoblasts over 24 and 48 h, effective concentrations", "setting": "[1]", "result": "0.14 to 1.4", "unit": "nM"}, {"measurement": "rate of protein degradation (release of L-[2,6-3H]phenylalanine) in C2C12 myoblasts, concentration of maximal effect at 6 h", "setting": "[1]", "result": "0.98 to 1.4", "unit": "nM"}, {"measurement": "Kd", "setting": "[2]", "result": 0.47, "unit": "nM"}, {"measurement": "Kd", "setting": "[3]", "result": 8.2, "unit": "nM"}, {"measurement": "Kd", "setting": "[4]", "result": 0.3, "unit": "nM"}, {"measurement": "Kd", "setting": "[5]", "result": 0.69, "unit": "nM"}, {"measurement": "Kd", "setting": "[6]", "result": 2.3, "unit": "nM"}, {"measurement": "Kd", "setting": "[7]", "result": 0.2, "unit": "nM"}, {"measurement": "Kd", "setting": "[8]", "result": 0.11, "unit": "nM"}, {"measurement": "Kd", "setting": "[9]", "result": 1.7, "unit": "nM"}, {"measurement": "Kd", "setting": "[10]", "result": 0.01, "unit": "nM"}, {"measurement": "Kd", "setting": "[11]", "result": 0.12, "unit": "nM"}, {"measurement": "Kd", "setting": "[12]", "result": 0.52, "unit": "nM"}, {"measurement": "Kd", "setting": "[13]", "result": 1.2, "unit": "nM"}, {"measurement": "Kd", "setting": "[14]", "result": 0.1, "unit": "nM"}, {"measurement": "fold greater affinity than binding to a monoclonal antibody", "setting": "[15]", "result": "10 to 100", "unit": "fold"}, {"measurement": "Kd", "setting": "[16]", "result": 0.14, "unit": "nM"}]}, {"molecule": "DINGGGATLPQPLYQTAAVLTAGFA", "note": "[N-terminal synthetic peptide of the PIF receptor (peptide of SEQ ID No. 1)]", "values": [{"measurement": "PIF-induced increase in chymotrypsin-like enzyme activity", "setting": "[17]", "result": 10, "unit": "µM"}, {"measurement": "PIF-induced protein degradation in murine myotubes", "setting": "[17]", "result": 10, "unit": "µM"}]}]}
